Measured values from CN110272489A.

Experiments:
[1] = molecular target: 狨猴(marmoset) Tim-3蛋白 (狨猴(marmoset)) (UniProt F7I881); test: ELISA, against ABTIM3 as reference
[2] = molecular target: 人TIM-3 (recombinant antigen of the ELISA of Example 3: TIM-3-hFc captured on goat-anti-hFc, or Tim-3-his coated directly) (human) (UniProt Q8TDQ0); test: ELISA of hybridoma supernatant on human TIM-3 (Example 3)

Row | fold stronger than the positive control molecule [1] [fold] | ELISA 数值(OD450) [2] [OD450] | Binder
1 | > 4 | – | 人源化ab32抗体 (全人源化抗体) (antibody, human IgG4 S228P, kappa, V domains shown) VH: EVQLVESGGGLVKPGGSLRLSCAASGFTFSDYYMTWVRQAPGKGLEWVSSINYDGRNTYYLDSLKSRFTISRDNAKNSLYLQMNSLRAEDTAVYYCARGYYYYGSSPNYFDYWGQGTLVTVSS VL: DIQMTQSPSSLSASVGDRVTITCRASENIYSYLTWYQQKPGKAPKLLIYNAKTLAEGVPSRFSGSGSGTDFTLTISSLQPEDFATYYCQQHYGTPLTFGQGTKLEIKR
2 | – | 1.14 | mab15 (鼠源抗体) (antibody, V domains shown) VH: EVKLVESEGGLVQPGSSMKLSCTASGFTFSDYYMTWVRQVPEKGLEWVASINYDGRNTYYLDSLKSRFIISRDNAKNILYLQMSSLKSEDTATYYCARGYYYYGSSPNYFDYWGQGTTLTVSS VL: DIQMTQSPASLSASVGETVTITCRASENIYSYLTWYQQKQGKSPQLLVYNAKTLAEGVPSRFSGSGSGTQFSLRINSLQPEDFGNYYCQQHYGTPLTFGAGTKLELK
